Article PMC9646525, “Cryo-EM structure of the SEA complex” (Nature, 2022)

Target: the molecule itself
Assay: cryo-EM structure; endogenous SEAC purified from yeast via Sea4-TAP (IgG Dynabeads, TEV elution in 20 mM HEPES-NaOH pH 7.4, 300 mM NaCl, 2 mM DTT), on graphene-oxide-coated grids

B1: Sea4-TAP (natural protein, UniProt P38164 1-1038, looked up)
chain: MGLIKKVTHWSYDNLIDYLSVNPTRDEVTHYKVDPENESDESIIKLHTVKDFGSITCLDYSESEIGMIGVGEKNGYLRIFNISGQNSSSPASHAPVGLNANNETSMTNASGGKAAQAENIVGSVSNLKDTQGYPVSETNYDIRVRAKKQRCINSLGINTNGLIAMGLDRNKHDSSLQIWDMNYHDDSHETINPMFSYCTNESIVSLKFLNDTSVLAASTKFLKEIDVRSPNPIYQHPTRLTYDIKLNPFNDWQFSTYGDDGTLAIWDRRKLSDQASLGDLNVASPLLTFEKLVGSGAASRKYMNSCFRWSCVRNNEFATLHRGDTIKRWRLGYYCDSNRDIAADDDNEMNIENLFVSSVHDTNTMYDRVATFDYIPRSNNGTSLICMRQSGTIYRMPISEVCSKAILNNRNSLLLSNFENTEIDEIRVNNEHEKSNLENVKTILKNLSFEDLDVSEDYFPSGHDEPNNEIEYSELSEEENEGSNDVLDSKRGFELFWKPEKLLEKDISVIMRTRASLGYGLDPMNTVEMIDSSKNLQNNAYIRNTWRWIAIAKASVDDGTMVSGDLDLGYEGVIGIWNGINGISNQDRYRQETILSDKQLNKEMEKIIKLRRKNRDRNSPIANAAGSPKYVQRRLCLIISGWDLSRSDYEDKYNIIMKNGHYEKAAAWAVFFGDIPKAVEILGSAKKERLRLIATAIAGYLAYKDLPGNNAWRQQCRKMSSELDDPYLRVIFAFIADNDWWDILYEPAISLRERLGVALRFLNDTDLTTFLDRTSSTVIENGELEGLILTGITPNGIDLLQSYVNKTSDVQSAALISIFGSPRYFRDQRVDEWIQTYRDMLKSWELFSMRARFDVLRSKLSRTKTGVLTADIKPRQIYIQCQNCKQNINTPRTSSPSSAVSTSAGNYKNGEAYRRNNADYKKFNTGSSEAQAADEKPRHKYCCPHCGSSFPRCAICLMPLGTSNLPFVINGTQSRDPMQTEDSQDGANRELVSRKLKLNEWFSFCLSCNHGMHAGHAEEWFDRHNVCPTPGCTCQCNK
notes: Sea4, S. cerevisiae, endogenous subunit of the SEAC (SEACAT, core), TAP-tagged; Captured by the TAP tag on IgG beads; the complex was released with TEV protease before SDS-PAGE and cryo-EM; Written 'Sea4-TAP'; Four copies in the SEAC; source: endogenous, yeast cells expressing Sea4-TAP; in lysate, purified on IgG-coupled Dynabeads and eluted with TEV protease
**Q.** How did the “stoichiometry N” value turn out when B1 was run?
**A.** 4
